Measured values taken from paper PMC12552129, “Methylthio-alkane reductases use nitrogenase metalloclusters for carbon–sulfur bond cleavage” (Nature Catalysis, 2025).
Values joined by “and” are separate entries in the source; they are usually repeats but may differ in a detail not shown here. Identical values can stand only once.

T1: MarD subunit of the methylthio-alkane reductase catalytic component from Rhodospirillum rubrum (Strep-tagged) (Rhodospirillum rubrum, UniProt Q2RW97 1-511)
T1 construct: MarD, subunit of the catalytic component of the methylthio-alkane reductase (marHDK) of Rhodospirillum rubrum; 57.5 kDa with the Strep tag; Holds the [Fe8S9C]-cluster; also called D1; source: Rhodobacter capsulatus MM0422 (plasmid-based, anfH promoter), soluble fraction of the lysate; purified anaerobically with MarK (Strep-Tactin XT 4Flow, PD-10 desalting); not shown: Strep-tag II, C-terminal, …
T1 sequence: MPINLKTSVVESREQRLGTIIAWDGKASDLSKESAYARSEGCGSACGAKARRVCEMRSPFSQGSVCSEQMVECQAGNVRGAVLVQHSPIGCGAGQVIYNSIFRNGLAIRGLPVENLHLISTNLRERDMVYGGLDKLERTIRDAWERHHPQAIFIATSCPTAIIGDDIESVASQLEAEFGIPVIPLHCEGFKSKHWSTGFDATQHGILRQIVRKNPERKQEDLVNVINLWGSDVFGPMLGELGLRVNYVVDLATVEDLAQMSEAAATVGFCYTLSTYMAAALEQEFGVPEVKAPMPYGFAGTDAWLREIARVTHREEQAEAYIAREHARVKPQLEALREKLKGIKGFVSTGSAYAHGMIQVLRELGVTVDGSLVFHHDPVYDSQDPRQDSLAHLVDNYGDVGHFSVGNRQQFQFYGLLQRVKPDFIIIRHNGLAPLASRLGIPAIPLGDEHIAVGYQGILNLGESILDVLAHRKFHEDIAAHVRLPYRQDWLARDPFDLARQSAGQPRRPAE

T2: Mar(DK)2, catalytic component of the methylthio-alkane reductase from Rhodospirillum rubrum (Rhodospirillum rubrum, UniProt Q2RW97 1-511; Q2RW98 1-466)
T2 construct: MarD of Rhodospirillum rubrum, as the chain of m2; MarK of Rhodospirillum rubrum, as the chain of m3; Heterotetramer by mass photometry (227 kDa measured, 217 kDa theoretical); holds two P-clusters and two [Fe8S9C]-clusters; No tag cleavage is described; The deposited model (MarDK2H2) holds only one of the two MarD copies; copies: 2 + 2
T2 sequence 1: T1 sequence
T2 sequence 2: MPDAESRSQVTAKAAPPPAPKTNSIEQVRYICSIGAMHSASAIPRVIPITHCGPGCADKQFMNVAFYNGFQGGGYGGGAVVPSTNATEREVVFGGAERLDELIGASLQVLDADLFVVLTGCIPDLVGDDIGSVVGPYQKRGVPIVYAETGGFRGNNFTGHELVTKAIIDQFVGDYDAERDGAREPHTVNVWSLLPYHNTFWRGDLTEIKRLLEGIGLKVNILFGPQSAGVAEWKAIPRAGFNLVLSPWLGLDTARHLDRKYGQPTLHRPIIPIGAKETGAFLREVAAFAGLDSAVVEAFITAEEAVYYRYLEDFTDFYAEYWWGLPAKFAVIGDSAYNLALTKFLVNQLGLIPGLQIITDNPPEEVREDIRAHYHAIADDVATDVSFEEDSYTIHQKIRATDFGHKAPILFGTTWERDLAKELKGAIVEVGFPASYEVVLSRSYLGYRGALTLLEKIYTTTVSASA

B1: MarK subunit of the methylthio-alkane reductase catalytic component from Rhodospirillum rubrum (enzyme)
chain: T2 sequence 2
notes: MarK, subunit of the catalytic component of the methylthio-alkane reductase (marHDK) of Rhodospirillum rubrum; 50.8 kDa; No tag is described for MarK; also called K1 and K2; source: Rhodobacter capsulatus MM0422 (plasmid-based, anfH promoter), soluble fraction of the lysate; purified anaerobically with Strep-tagged MarD (Strep-Tactin XT 4Flow, PD-10 desalting)
B2: MarH2, reductase component of the methylthio-alkane reductase from Rhodospirillum rubrum (His-tagged MarH) (enzyme)
chain: AKSPKQIAIYGKGGIGKSTTTSNISAALAEAGYKVMQFGCDPKSDSTNTLRGGDYIPSVLDLLRENARVDAHEAIFQGFGGIYCVEAGGPAPGVGCAGRGIITAVELLKQQNVFEELDLDYVIFDVLGDVVCGGFAVPIREGIAEHVFTVSSSDFMAIYAANNLFKGIQKYSNAGGALLGGVIANSINTDFHRDIIDDFVARTQTQVVQYVPRSLTVTQAELQGRTTIEAAPESAQAEIYRTLARSIADHTDSKVPTPLNAQELRDWSASWANQLIEIERASQPIPALAS
notes: MarH, reductase subunit of the methylthio-alkane reductase (marHDK) of Rhodospirillum rubrum; 31.9 kDa with the His tag; Homodimer by mass photometry; holds one [Fe4S4]-cluster in the dimer interface; No tag cleavage is described, and the theoretical mass of 64 kDa equals twice the 31.9 kDa of His-tagged MarH; also called H1 and H2; source: Rhodobacter capsulatus MM0422 (plasmid-based, anfH …)

Tests used:
[1] = biological target: T1, MarD subunit of the methylthio-alkane …; test: mass photometry; TwoMP mass photometer; 0.5 µl of sample (500 nM stock, 4 mM sodium DT) added to 19.5 µl anaerobic measurement buffer (150 mM NaCl, 50 mM Tris pH 7.8, 10% glycerol, 10 mM sodium DT); each component measured alone; details: both partners purified
[2] = biological target: the molecule itself; test: as above
[3] = biological target: T2, Mar(DK)2, catalytic component of the …; test: cryo-EM structure; MgADP-AlF3-trapped complex: 22 nmol MarH2 and 3 nmol Mar(DK)2 in 100 mM MOPS pH 7.3, 50 mM Tris pH 7.8, 100 mM NaCl, 5 mM DT, 4 mM NaF, 0.2 mM AlCl3, 8 mM MgCl2, 1 mM ATP, 3 h at 30 °C; isolated by size-exclusion chromatography (HiLoad 26/600 Superdex 200 pg); anaerobic single-particle cryo-EM; details: both partners purified

| Binder | binding result [1] | stoichiometry N [2] | stoichiometry N [3] |
| --- | --- | --- | --- |
| B1 | binds | – | – |
| B2 | – | 2 | 1 and 2 |
